{"source": "patent US20110015587A1", "about": "“Irrigation Device and Method Using Same” (priority 2009, published 2011)", "origin": "cited, not measured here", "molecules": {"B1": {"name": "Lactoferrin (protein, UniProt P02788 20-710, looked up)", "Lactotransferrin": "GRRRSVQWCAVSQPEATKCFQWQRNMRKVRGPPVSCIKRDSPIQCIQAIAENRADAVTLDGGFIYEAGLAPYKLRPVAAEVYGTERQPRTHYYAVAVVKKGGSFQLNELQGLKSCHTGLRRTAGWNVPIGTLRPFLNWTGPPEPIEAAVARFFSASCVPGADKGQFPNLCRLCAGTGENKCAFSSQEPYFSYSGAFKCLRDGAGDVAFIRESTVFEDLSDEAERDEYELLCPDNTRKPVDKFKDCHLARVPSHAVVARSVNGKEDAIWNLLRQAQEKFGKDKSPKFQLFGSPSGQKDLLFKDSAIGFSRVPPRIDSGLYLGSGYFTAIQNLRKSEEEVAARRARVVWCAVGEQELRKCNQWSGLSEGSVTCSSASTTEDCIALVLKGEADAMSLDGGYVYTAGKCGLVPVLAENYKSQQSSDPDPNCVDRPVEGYLAVAVVRRSDTSLTWNSVKGKKSCHTAVDRTAGWNIPMGLLFNQTGSCKFDEYFSQSCAPGSDPRSNLCALCIGDEQGENKCVPNSNERYYGYTGAFRCLAENAGDVAFVKDVTVLQNTDGNNNEAWAKDLKLADFALLCLDGKRKPVTEARSCHLAMAPNHAVVSRMDKVERLKQVLLHQQAKFGRNGSDCPDKFCLFQSETKNLLFNDNTECLARLHGKTTYEKYLGPQYVAGITNLKKCSTSPLLEACEFLRK"}}, "tested_on": "fibroblasts", "conditions": "in six hours; through motility of fibroblasts"}
{"molecule": "B1", "values": [{"measurement": "reduction of collagen gel surface area", "result": 50, "unit": "%"}]}
